What all share (conditions): partners not purified
The target of one experiment is T1, CCR7-SmBiT (Homo sapiens, UniProt P32248).
T1 construct: Chemokine receptor CCR7, human; amplified from pcDNA3-CCR7-HA and ligated to SmBiT amplified from pAAVS1P-iCLHN; A Gly/Ser linker between CCR7 and SmBiT is surmised from the primer; also called pcDNA3-CCR7-SmBiT; pBiT2.1-C-CCR7-SmBiT; source: HEK293, transiently transfected, in cells; not shown: SmBiT (Small BiT of NanoLuc), C-terminal, kept
Nature of the experiment: split reporter (BiFC, NanoBiT); split-luciferase complementation; HEK293 cells co-expressing GPCR-SmBiT and Nb-LgBiT (plasmid ratio 1:1), coelenterazine H 5 µM, luminescence before and after 10 µM isoproterenol, 1.5 µg/mL CCL19 or PBS.

The target in another experiment is T2, CCR7-YFP2 (Homo sapiens, UniProt P32248).
T2 construct: Chemokine receptor CCR7, human; amplified by PCR and subcloned into the split-YFP2 BiFC vector; also called CC chemokine receptor 7; CCR7-Y2; source: HEK293, transiently or stably transfected, in cells; not shown: split-YFP2, C-terminal, kept
In words: split reporter (BiFC, NanoBiT); BiFC read by confocal microscopy; HEK293 cells stably expressing CCR7-YFP2, transiently transfected with Nb-YFP1, unstimulated or stimulated with 0.5 µg/mL CCL19, fixed.

The next experiment deals with T3, β2AR-YFP2 (human, UniProt P07550).
T3 construct: also called β2-adrenergic receptor; ADRB2; source: HEK293, transiently transfected, in cells; not shown: split-YFP2, C-terminal, kept
In words: split reporter (BiFC, NanoBiT); BiFC read by flow cytometry; HEK293 cells co-expressing Nb-YFP1 and GPCR-YFP2, stimulated 20 min with 10 µM isoproterenol or 0.5 µg/mL CCL19, fixed in 4% formaldehyde. On the technique in general: Flow cytometry measures light scatter and fluorescence of single cells or particles in a stream.

Experiment [1] addresses T4, β2AR-SmBiT (UniProt P07550).
T4 construct: β2-adrenergic receptor; also called pBiT2.1-C-β2AR-SmBiT; source: HEK293, transiently transfected, in cells; not shown: SmBiT (Small BiT of NanoLuc), C-terminal, kept
Nature of the experiment: split reporter (BiFC, NanoBiT); G-protein competition assay based on split-luciferase complementation; HEK293 cells co-expressing GPCR-SmBiT, LgBiT-mini-Gαi and Nb-YFP1 or pcDNA3 (1:1:1), stimulated with 10 µM isoproterenol or 1.5 µg/mL CCL19; fold increase in luminescence over baseline.

The target of experiment [2] is T4, β2AR-SmBiT. In words: split reporter (BiFC, NanoBiT); split-luciferase complementation; HEK293 cells co-expressing GPCR-SmBiT and Nb-LgBiT (plasmid ratio 1:1), coelenterazine H 5 µM, luminescence before and after 10 µM isoproterenol, 1.5 µg/mL CCL19 or PBS.

T1 sequence (P32248 25-378): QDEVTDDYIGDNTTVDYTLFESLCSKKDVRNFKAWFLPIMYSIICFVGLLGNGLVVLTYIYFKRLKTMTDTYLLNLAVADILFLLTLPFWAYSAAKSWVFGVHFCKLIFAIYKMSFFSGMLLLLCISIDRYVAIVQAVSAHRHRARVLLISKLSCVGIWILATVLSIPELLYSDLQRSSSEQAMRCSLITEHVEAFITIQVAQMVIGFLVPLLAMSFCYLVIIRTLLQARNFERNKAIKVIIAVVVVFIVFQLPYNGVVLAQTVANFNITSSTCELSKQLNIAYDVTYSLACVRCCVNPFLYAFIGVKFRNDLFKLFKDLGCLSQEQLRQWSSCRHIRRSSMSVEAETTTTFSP
T2 sequence (P32248 25-378): as above

B1: Nb5-LgBiT (VHH)
VHH: QVQLQESGGGLVQAGGSLRLSCAASGCVPGPNTMGWYRQAPGKQRELVAAIHSGGSTNYANSVKGRFTISRDNAANTVYLQMNSLKPEDTAVYYCNVKDETRTRHQNDYWGQGTQVTVSS
notes: As the VHH of m5 (Nb5): Nb80 with randomised segments in CDR1 and CDR3; source: HEK293, transiently transfected, in cells; not shown: LgBiT (Large BiT of NanoLuc), C-terminal, kept
With B1, the binding result in the experiment with CCR7-SmBiT is reported as “binds”.

B2: Nb5-YFP1 (VHH)
VHH: B1 VHH
notes: As the VHH of m1 (Nb80) with randomised segments in CDR1 and CDR3; Clone from the synthetically randomised Nb80 library; also called Nb5-Y1; source: HEK293, transiently transfected, in cells; not shown: split-YFP1 (N-terminal part of split-YFP), C-terminal, kept
Consider B2, for which the binding result in the experiment with CCR7-YFP2 is “binds”.

B3: Nb80-YFP1 (VHH)
VHH: QVQLQESGGGLVQAGGSLRLSCAASGSIFSINTMGWYRQAPGKQRELVAAIHSGGSTNYANSVKGRFTISRDNAANTVYLQMNSLKPEDTAVYYCNVKDYGAVLYEYDYWGQGTQVTVSS
notes: Nanobody Nb80 against the β2-adrenergic receptor; The reverse PCR primer appears to encode a His6 stretch at the C-terminus of Nb80, ahead of YFP1 (surmised from the primer); No PDB id is printed; also called Nb80-Y1; pcDNA3-Nb80-YFP1; source: HEK293, transiently transfected, in cells; not shown: split-YFP1 (N-terminal part of split-YFP), C-terminal, kept
Take B3: the binding result with β2AR-YFP2 and in the experiment with β2AR-SmBiT [1] was “binds” each time.

B4: Nb80-LgBiT (VHH)
VHH: B3 VHH
notes: As the VHH of m1 (Nb80); Nb80 was moved from pcDNA3-Nb80-YFP1 into pcDNA3-CCR7-LgBiT by HindIII and ClaI, followed by site-directed mutagenesis at the junction; A Gly/Ser linker before LgBiT is surmised from the primers; also called pcDNA3-Nb80-LgBiT; source: HEK293, transiently transfected, in cells; not shown: LgBiT (Large BiT of NanoLuc), C-terminal, kept
As for B4, the binding result in the experiment with β2AR-SmBiT [2] is given as “binds”.

B5: Nb1-LgBiT (VHH)
VHH: QVQLQESGGGLVQAGGSLRLSCAASGLRFSRNTMGWYRQAPGKQRELVAAIHSGGSTNYANSVKGRFTISRDNAANTVYLQMNSLKPEDTAVYYCNVKDWNNQPNGDDYWGQGTQVTVSS
notes: As the VHH of m3 (Nb1): Nb80 with randomised segments in CDR1 and CDR3; source: HEK293, transiently transfected, in cells; not shown: LgBiT (Large BiT of NanoLuc), C-terminal, kept
Regarding B5, the binding result with CCR7-SmBiT is recorded as “binds”.

B6: Nb1-YFP1 (VHH)
VHH: B5 VHH
notes: As the VHH of m1 (Nb80) with randomised segments in CDR1 and CDR3; Clone from the synthetically randomised Nb80 library; also called Nb1-Y1; source: HEK293, transiently transfected, in cells; not shown: split-YFP1 (N-terminal part of split-YFP), C-terminal, kept
For the molecule B6, in the experiment with CCR7-YFP2, the binding result was “binds”.

B7: Nb38-LgBiT (VHH)
VHH: QVQLQESGGGLVQAGGSLRLSCAASGHTMFSNTMGWYRQAPGKQRELVAAIHSGGSTNYANSVKGRFTISRDNAANTVYLQMNSLKPEDTAVYYCNVKDFLGLIHFRDYWGQGTQVTVSS
notes: As the VHH of m7 (Nb38): Nb80 with randomised segments in CDR1 and CDR3; source: HEK293, transiently transfected, in cells; not shown: LgBiT (Large BiT of NanoLuc), C-terminal, kept
With B7, the binding result with CCR7-SmBiT was “binds”.

B8: Nb38-YFP1 (VHH)
VHH: B7 VHH
notes: As the VHH of m1 (Nb80) with randomised segments in CDR1 and CDR3; Clone from the synthetically randomised Nb80 library; also called Nb38-Y1; source: HEK293, transiently transfected, in cells; not shown: split-YFP1 (N-terminal part of split-YFP), C-terminal, kept
Turning to B8, in the experiment with CCR7-YFP2, the binding result is on record as “binds”.
